Measurements: patent publication US20110217401

Molecular target: human apolipoprotein B (apoB) of serum low density lipoprotein particles (UniProt P04114)
Sequence (P04114 28-4563): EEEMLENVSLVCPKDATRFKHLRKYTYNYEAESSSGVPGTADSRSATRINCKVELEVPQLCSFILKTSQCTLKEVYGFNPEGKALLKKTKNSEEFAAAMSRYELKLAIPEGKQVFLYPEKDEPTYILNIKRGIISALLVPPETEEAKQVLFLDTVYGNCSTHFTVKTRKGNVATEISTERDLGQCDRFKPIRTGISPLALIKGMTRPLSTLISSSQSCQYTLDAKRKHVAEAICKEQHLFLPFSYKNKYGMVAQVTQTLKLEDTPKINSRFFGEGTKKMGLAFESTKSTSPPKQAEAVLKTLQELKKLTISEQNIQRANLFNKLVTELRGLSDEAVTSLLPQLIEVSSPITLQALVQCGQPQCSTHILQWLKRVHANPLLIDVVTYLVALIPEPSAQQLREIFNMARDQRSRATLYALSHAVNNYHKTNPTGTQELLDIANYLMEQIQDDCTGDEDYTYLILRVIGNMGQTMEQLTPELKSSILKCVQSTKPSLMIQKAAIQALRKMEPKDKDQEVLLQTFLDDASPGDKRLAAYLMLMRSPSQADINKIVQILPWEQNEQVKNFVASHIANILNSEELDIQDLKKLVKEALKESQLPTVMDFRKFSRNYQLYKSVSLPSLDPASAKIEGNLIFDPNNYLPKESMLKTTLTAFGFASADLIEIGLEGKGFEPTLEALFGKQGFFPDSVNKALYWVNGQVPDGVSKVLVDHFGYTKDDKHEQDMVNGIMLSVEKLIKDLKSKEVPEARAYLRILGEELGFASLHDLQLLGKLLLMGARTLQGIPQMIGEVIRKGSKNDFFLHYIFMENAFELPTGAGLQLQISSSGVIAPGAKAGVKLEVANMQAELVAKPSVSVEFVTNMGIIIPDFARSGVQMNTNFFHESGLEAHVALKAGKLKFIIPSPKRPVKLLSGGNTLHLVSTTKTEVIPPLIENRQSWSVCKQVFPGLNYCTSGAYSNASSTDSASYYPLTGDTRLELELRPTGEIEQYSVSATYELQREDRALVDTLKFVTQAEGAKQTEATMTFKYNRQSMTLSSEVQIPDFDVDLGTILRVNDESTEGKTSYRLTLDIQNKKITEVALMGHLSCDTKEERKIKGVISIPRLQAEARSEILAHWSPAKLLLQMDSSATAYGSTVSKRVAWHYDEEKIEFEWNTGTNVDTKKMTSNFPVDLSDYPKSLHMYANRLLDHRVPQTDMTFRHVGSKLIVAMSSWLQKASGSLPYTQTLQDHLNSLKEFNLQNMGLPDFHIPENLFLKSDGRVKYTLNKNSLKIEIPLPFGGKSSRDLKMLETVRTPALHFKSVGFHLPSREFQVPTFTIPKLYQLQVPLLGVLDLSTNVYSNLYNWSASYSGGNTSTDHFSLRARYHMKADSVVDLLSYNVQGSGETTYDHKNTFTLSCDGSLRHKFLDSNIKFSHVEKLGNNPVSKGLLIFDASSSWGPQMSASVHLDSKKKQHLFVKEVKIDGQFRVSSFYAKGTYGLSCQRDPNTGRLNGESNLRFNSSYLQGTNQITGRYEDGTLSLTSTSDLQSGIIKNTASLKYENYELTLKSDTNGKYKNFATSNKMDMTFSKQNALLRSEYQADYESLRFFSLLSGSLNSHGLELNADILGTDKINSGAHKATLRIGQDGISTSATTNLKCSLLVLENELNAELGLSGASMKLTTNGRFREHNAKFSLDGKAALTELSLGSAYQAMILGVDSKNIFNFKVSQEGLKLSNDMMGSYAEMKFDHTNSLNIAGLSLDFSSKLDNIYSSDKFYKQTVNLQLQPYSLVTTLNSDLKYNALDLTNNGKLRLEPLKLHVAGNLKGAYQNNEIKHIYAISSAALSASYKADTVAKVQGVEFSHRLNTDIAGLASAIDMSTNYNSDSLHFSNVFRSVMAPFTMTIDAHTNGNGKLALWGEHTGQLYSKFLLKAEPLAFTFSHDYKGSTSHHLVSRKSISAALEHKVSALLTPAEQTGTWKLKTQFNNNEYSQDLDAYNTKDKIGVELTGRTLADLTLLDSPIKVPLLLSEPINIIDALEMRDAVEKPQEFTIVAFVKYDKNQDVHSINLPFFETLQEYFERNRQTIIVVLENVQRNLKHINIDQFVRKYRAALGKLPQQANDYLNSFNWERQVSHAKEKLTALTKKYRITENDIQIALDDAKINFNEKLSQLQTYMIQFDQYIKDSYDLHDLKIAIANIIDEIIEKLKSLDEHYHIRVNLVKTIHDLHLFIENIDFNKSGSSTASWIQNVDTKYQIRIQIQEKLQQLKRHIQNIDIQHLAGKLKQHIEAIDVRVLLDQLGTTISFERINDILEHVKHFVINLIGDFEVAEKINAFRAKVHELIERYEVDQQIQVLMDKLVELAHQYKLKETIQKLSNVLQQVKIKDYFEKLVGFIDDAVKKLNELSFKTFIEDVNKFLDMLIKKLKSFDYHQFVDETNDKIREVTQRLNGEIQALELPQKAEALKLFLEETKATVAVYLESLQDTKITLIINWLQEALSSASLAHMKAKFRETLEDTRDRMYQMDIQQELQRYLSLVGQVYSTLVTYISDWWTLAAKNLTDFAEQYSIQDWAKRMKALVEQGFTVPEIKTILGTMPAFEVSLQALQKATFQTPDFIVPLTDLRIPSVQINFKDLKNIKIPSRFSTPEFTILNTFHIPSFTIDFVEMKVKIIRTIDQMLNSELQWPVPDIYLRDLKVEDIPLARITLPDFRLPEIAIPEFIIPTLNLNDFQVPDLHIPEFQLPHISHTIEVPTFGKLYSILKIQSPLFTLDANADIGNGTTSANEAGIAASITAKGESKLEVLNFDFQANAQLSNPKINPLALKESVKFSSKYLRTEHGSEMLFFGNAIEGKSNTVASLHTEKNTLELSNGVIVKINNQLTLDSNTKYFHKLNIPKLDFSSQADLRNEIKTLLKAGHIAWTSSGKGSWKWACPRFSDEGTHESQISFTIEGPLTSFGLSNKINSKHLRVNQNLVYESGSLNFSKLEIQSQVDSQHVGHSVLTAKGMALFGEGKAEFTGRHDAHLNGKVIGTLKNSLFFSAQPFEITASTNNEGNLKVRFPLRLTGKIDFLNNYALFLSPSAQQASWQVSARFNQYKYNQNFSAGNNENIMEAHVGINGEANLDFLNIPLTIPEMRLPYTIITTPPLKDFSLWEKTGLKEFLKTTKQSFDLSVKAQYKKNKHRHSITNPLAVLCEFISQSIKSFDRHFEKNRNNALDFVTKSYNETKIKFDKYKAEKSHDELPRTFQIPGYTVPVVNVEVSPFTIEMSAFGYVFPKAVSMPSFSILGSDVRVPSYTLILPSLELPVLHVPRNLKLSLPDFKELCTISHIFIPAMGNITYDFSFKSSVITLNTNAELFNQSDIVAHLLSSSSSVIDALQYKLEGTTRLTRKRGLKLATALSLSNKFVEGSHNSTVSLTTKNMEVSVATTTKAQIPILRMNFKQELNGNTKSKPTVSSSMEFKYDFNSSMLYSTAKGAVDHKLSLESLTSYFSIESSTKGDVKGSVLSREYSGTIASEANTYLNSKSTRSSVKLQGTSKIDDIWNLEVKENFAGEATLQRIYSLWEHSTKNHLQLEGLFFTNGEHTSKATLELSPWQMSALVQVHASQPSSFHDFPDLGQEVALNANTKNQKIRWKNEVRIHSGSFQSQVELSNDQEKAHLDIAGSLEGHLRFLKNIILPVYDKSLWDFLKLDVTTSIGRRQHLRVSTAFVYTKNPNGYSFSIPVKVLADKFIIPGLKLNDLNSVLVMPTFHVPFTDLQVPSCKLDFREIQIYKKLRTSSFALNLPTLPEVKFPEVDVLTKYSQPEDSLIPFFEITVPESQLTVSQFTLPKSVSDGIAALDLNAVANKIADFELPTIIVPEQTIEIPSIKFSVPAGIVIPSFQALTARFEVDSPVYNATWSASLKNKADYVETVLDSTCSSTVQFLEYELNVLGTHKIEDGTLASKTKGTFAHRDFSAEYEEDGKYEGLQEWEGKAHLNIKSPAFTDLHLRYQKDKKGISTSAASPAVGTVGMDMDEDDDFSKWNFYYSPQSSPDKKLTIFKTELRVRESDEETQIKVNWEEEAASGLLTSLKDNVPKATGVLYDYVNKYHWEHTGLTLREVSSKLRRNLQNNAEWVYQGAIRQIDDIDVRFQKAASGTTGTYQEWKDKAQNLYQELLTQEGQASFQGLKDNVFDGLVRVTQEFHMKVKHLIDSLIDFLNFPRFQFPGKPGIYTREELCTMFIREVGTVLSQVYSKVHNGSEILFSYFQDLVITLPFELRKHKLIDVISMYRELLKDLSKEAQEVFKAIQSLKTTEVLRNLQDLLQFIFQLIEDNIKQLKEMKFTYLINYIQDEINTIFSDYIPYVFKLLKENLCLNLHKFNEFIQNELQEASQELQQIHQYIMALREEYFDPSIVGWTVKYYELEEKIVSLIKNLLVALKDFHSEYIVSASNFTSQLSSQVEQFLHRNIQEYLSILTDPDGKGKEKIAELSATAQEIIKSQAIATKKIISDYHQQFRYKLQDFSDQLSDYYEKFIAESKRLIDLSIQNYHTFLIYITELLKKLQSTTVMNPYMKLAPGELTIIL

## recombinant arNOX SF2 (recombinant apoBNOX, TM9SF2 expressed in E. coli from pET11a-TM9SF2)
  Oxidation of protein thiols of human apoB (DTNB reactivity), nmoles SH oxidized, complete mixture, 2 h (nmoles SH oxidized): 500
  Oxidation of protein thiols of human apoB (DTNB reactivity), relative units, complete mixture, 2 h (relative units): 25
